Test results as given in article PMC12866179, “Oxidized MIF is an Alzheimer’s disease drug target relaying external risk factors to tau pathology” (Cell Reports Medicine, 2025).

Biological target: recombinant human MIF-C80W (human)
Assay: SEC-MALS; 100 uM MIF (WT or C80W) in 20 mM phosphate buffer, with or without 100 uM PAV-174; TSKgel G2000SWXL, 0.5 mL/min, 25 C; UV 280 nm and miniDawn Treos light scattering

Substance: recombinant human MIF-C80W (natural protein)
- stoichiometry N: 3
